Three molecules from patent US20240343817A1 (STAIDSON BEIJING BIOPHARMACEUTICALS, published 2024) can be followed below.

Changes are numbered by the printed parent chain.

Assay [1] deals with human CD40 extracellular domain (recombinant) (human) (UniProt P25942). Put plainly: ELISA; CD40 extracellular domain coated 0.1 µg/well, antibody titrated from 10 µg/mL 1:3, anti-human IgG-HRP. Background: In an ELISA, binding on a coated surface is turned into a signal by an enzyme label.
Assay [2] has as its target Rhesus monkey CD40 extracellular domain (recombinant) (Rhesus monkey) (UniProt F6SNI1). The assay is described as above.
Assay [3] concerns the target human CD40 extracellular domain (recombinant) (human) (UniProt P25942). Put plainly: SPR, Biacore 8K; antibody on CM5 chip, hCD40 at various concentrations. In general terms: In SPR one partner is held on a chip, and binding of the other changes the refractive index at the surface.
The target in assay [4] is Rhesus monkey CD40 extracellular domain (recombinant) (Rhesus monkey) (UniProt F6SNI1). Kind of assay: ELISA, plate coated with recombinant rhesus monkey CD40 extracellular domain, antibody in serial dilution, anti-human IgG-HRP, OD450.
Assay [5] concerns the target human CD40 extracellular domain (recombinant) (human) (UniProt P25942). Kind of assay: ELISA, plate coated with recombinant human CD40 extracellular domain, antibody in serial dilution, anti-human IgG-HRP, OD450.
The target of assay [6] is T1, human CD40 on cells (human, UniProt P25942 21-277). Put plainly: cell-based or functional assay.
Assay [7] addresses T2, human CD40 extracellular domain (recombinant) (human, UniProt P25942 21-193).
T2 construct: Extracellular domain expressed in 293F cells; also called hCD40; CD40-His; not shown: tag (His, Avi-His, mouse Fc or human Fc)
Kind of assay: affinity assay not described (data not shown).

The target of assay [8] is T2, human CD40 extracellular domain …. Put plainly: ELISA, plate coated with recombinant human CD40 extracellular domain, antibody (human IgG4 format) in serial dilution, anti-human IgG-HRP, OD450. The method, then: (§1) ELISA Binding Assay: The selected monoclonal full-length antibodies D1, D2, D3, D5, D6, or D7 were subjected to binding assays with CD40 extracellular domain of different species, respectively. The assay was designed to identify full-length antibodies that cross-reacted with CD40 of different species. Briefly, the human or Rhesus monkey CD40 prepared in example 1 was dissolved in PBS and coated on […] with 0.1 μg/well followed by incubation at 4° C. overnight. The 96-well plates were washed with TBST before adding antibodies, blocked with 5% milk for 1-2 h at 37° C., and washed again with TBST. Firstly, each antibody sample was diluted to 10 μg/mL, and then serially diluted at a 1:3 ratio. 100 μL of serially diluted antibodies were added to each well and incubated for 1 h at 37° C. After washing with TBST for 6 times, 100 μL of the secondary antibody (goat anti-human IgG-HRP (Sigma. A8667)) was added to each well and incubated for 1 h at 37° C. After washing with TBST for 3 times, TMB was added with 100 μL/well and incubated for 10-20 minutes at 37° C. 2M H₂SO₄ was used to stop the reaction and plates were read for the absorbance at 450 nm. The ELISA results were then analyzed and the binding curves were generated by PRISM.
(§2) The biding affinity of the optimized full length CD40 antibodies with human or rhesus monkey CD40 was evaluated by Elisa according to the corresponding protocol as described in Example 2, and ASKP1240 was used as control.

For assay [9], the target named is T1, human CD40 on cells. Put plainly: cell-based or functional assay. This is another data set of the same source.
For assay [10], the target named is T2, human CD40 extracellular domain …. Put plainly: SPR, Biacore 8K; antibody on CM5 chip, hCD40 at various concentrations. The method, then:
The binding affinity of the optimized anti-CD40 antibodies with human […] was characterized using Biacore 8K (GE). Anti-CD4 (antibodies were stabilized on sensor chip CM5 The affinities for hCD40 at various concentrations were measured. Using the SPR technology, the association and dissociation rates were measured, and binding affinity was determined.

The target in another assay is T3, human TNFR2 (human, UniProt P20333 23-257).
T3 construct: Bought protein coated on the ELISA plate; also called TNFR2 (Sino biological, 10417-h08h); INFR2
T3 sequence (looked up): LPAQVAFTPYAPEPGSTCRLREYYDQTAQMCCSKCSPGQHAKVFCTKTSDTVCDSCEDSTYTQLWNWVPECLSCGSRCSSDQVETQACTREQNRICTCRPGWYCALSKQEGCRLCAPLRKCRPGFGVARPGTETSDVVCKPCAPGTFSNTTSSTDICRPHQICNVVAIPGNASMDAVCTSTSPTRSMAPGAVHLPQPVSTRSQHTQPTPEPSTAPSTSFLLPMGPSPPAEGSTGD
Kind of assay: ELISA; protein coated, antibody titrated, anti-human IgG-HRP. As to the method: (§3) The cross-reactivities between anti-CD40 antibodies and the protein homologous with CD40 were detected. It was well known that there is high sequence homology among TNFR superfamily members. When compared with CD40 sequence. TNFRSF11A (38.95% homology) and INFR2 (37.20% homology) are with the highest homology. The cross-reactions between the two proteins and anti-CD40 antibody were detected by ELISA. respectively. Briefly, human TNFRSF11A (Sino biological, 16078-h08h), human TNFR2 (Sino biological, 10417-h08h) or the human CD40 extracellular domain protein prepared in example 1 was coated on ELISA plate and incubated at 4° C. overnight, respectively. After serial dilution, the optimized full-length anti-CD40 antibodies were added into 96 well plates and incubated respectively. After washing with TBST solution, the anti-human IgG-HRP antibody was added and incubated at RT. After washing with PBST, TMB was added into each well for development. Plates were read for the absorbance at 450 nm.

In the next assay the target is T4, human TNFRSF11A (human, UniProt Q9Y6Q6 30-212).
T4 construct: Bought protein coated on the ELISA plate; also called TNFRSF11A (Sino biological, 16078-h08h)
T4 sequence (looked up): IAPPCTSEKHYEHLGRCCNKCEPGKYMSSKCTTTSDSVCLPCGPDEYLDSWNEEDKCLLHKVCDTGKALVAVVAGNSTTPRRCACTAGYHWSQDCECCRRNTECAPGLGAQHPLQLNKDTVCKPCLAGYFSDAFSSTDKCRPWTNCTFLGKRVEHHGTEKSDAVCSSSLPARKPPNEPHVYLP
The assay is described as above. The method, then:
as §3

Assay [11] addresses T5, Rhesus monkey CD40 extracellular domain (recombinant) (Rhesus monkey, UniProt F6SNI1 21-193).
T5 construct: extracellular domain; also called RheCD40
Kind of assay: ELISA, plate coated with recombinant rhesus monkey CD40 extracellular domain, antibody (human IgG4 format) in serial dilution, anti-human IgG-HRP, OD450. As to the method:
as §1, §2

T1 sequence (P25942 21-277 limits assumed): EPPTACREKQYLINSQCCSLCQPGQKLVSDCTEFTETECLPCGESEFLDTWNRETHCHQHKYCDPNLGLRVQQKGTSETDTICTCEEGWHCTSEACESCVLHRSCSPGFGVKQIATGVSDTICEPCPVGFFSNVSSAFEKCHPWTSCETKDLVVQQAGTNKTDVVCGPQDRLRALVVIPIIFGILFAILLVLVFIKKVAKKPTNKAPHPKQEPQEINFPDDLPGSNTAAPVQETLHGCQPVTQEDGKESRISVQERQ
human CD40 extracellular domain (recombinant) (human), sequence (P25942 21-193): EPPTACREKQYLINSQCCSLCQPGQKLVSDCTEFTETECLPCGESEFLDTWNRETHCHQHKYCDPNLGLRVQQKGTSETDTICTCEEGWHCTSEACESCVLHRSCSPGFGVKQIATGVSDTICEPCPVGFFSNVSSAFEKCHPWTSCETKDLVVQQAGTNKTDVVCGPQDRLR
T2 sequence (P25942 21-193): as above
Rhesus monkey CD40 extracellular domain (recombinant) (Rhesus monkey), sequence (F6SNI1 entry or part of it): as the sequence (P25942 21-193) above, with G43S, H56R, W89L, T92M, A95S, L101P, S106L, H142R, L172Q counted along it

B1: ASKP1240 (antibody, INN chains, looked up, V domains shown)
VH: QLQLQESGPGLLKPSETLSLTCTVSGGSISSPGYYGGWIRQPPGKGLEWIGSIYKSGSTYHNPSLKSRVTISVDTSKNQFSLKLSSVTAADTAVYYCTRPVVRYFGWFDPWGQGTLVTVSS
VL: AIQLTQSPSSLSASVGDRVTITCRASQGISSALAWYQQKPGKAPKLLIYDASNLESGVPSRFSGSGSGTDFTLTISSLQPEDFATYYCQQFNSYPTFGQGTKVEIK
modifications: IgG4
For the molecule B1, in assay [1], the EC50 (in general, the concentration at which the effect is half-maximal) was 0.211 µg/mL. Moreover, the EC50 in [2] was determined as 0.181 µg/mL. In [3], the Kd (usually the free concentration of one partner at which half of the binding sites on the other are occupied at equilibrium, for simple one-to-one binding) came to 2.07 nM; the koff – broadly, the rate constant with which the complex falls apart – worked out at 0.000617 s⁻¹; the kon (in general, the rate constant with which the complex forms) amounted to 298000 M⁻¹ s⁻¹. Besides, the EC50 (read off the curve) (in general, the concentration needed to bring the measured effect to its halfway point) in assay [4] was 0.1 µg/mL. Besides, the EC50 (read off the curve) in assay [5] came out at 0.1 µg/mL. Besides, in the assay with human CD40 on cells [6], the IC50, HEK-Blue CD40L NF-κB activation assay (SEAP) amounted to 0.0134 µg/mL and the IC50, HEK-Blue CD40L NF-κB activation assay (SEAP), Fc-3*G4S-CD40L stimulus is 0.0111 µg/mL.

B2: D11 (antibody, IgG4, V domains shown)
VH: QVQLVQSGAEVKKPGASVKVSCKASVYSFTGYTVNWVRQAPGQRLEWMGLINPYNGGTTYNQKFKGRVTLTIDKSASTAYMELSSLRSEDTAVYYCASSYYSNPYAMDYWGQGTLVTVSS
VL: EIVMTQSPATLSVSPGERATLSCKASQNVHTAVAWYQQKPGQAPRLLIYLASDRRTGIPARFSGSGSGTEFTLTISSLQSEDFAVYYCLQHWNYPLTFGQGTKVEIK
notes: Humanized form of D1; recombined with human IgG constant regions (preferably IgG4 heavy chain and kappa light chain); also called humanized anti-CD40 antibody D11
Consider B2, for which the binding result in assay [7] is given as “binds”.

B3: D33 (antibody, human IgG4, V domains shown)
VH: B2 VH with Y54L, N103T
VL: B2 VL with A32R
notes: also called optimized anti-CD40 antibody D33
As for B3, the “EC50 (read off the curve)” value in assay [8] was approximately 0.2 µg/mL. The “IC50, HEK-Blue CD40L NF-κB activation assay (SEAP), antibody as human IgG4” value with human CD40 on cells [9] stood at 0.0122 µg/mL. In [10], the equilibrium dissociation constant (Kd) was 1.63 nM, the koff came to 0.000494 s⁻¹ and the on-rate constant (kon) came to 304000 M⁻¹ s⁻¹. In addition, the binding result with human TNFR2 is listed as “no binding (tested: 10 µg/mL)”. Also, the binding result in the assay with human TNFRSF11A was “no binding (tested: 10 µg/mL)”. Further, the “EC50 (read off the curve)” value in assay [11] is approximately 0.1 µg/mL.
